From the supplement of paper PMC10567573

B1: LOXL2 (parent)
chain: YVEVKEGKTWKQICDKHWTAKNSR
B2: ZNF649 (parent)
chain: MTKAQESLTLEDVAVDFTWEEWQF

Variants of: B1
Assay: protein stability index of a GFP-peptide fusion (GPS, HEK-293T) (PSI 1-6); higher = more stable
Conditions: c terminus: a fixed tail appended
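Also: lentivirally expressed fusions sorted by FACS into six bins by GFP to DsRed ratio, PSI derived from sequencing read proportions per bin multiplied by bin number.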

Row | Variant | protein stability index
1 | I13T | 2.68
2 | I13M | 2.19
3 | I13D | 3.54
4 | I13L | 1.4
5 | I13Y | 1.6
6 | I13P | 3.38
7 | I13W | 2.25
8 | I13S | 2.38
9 | I13K | 2.81
10 | I13A | 2.73
11 | I13H | 2.42
12 | I13N | 1.37
13 | R24I | 1.74
14 | R24K | 2.76
15 | R24S | 3.24
16 | R24Q | 2.33
17 | R24V | 2.2
18 | R24C | 2.72
19 | R24T | 3.49
20 | R24P | 1.69
21 | R24Y | 3.45
22 | R24N | 2.48
23 | R24H | 3.07
24 | R24M | 2.09

Row | Variant | protein stability index
25 | R24L | 2.46
26 | R24D | 1.91
27 | R24G | 1.53
28 | G7S | 1.86
29 | G7A | 1.61
30 | G7D | 1.6
31 | G7K | 1.91
32 | G7F | 1.65
33 | G7V | 2.8
34 | G7I | 1.85
35 | G7Q | 2.42
36 | G7C | 2.29
37 | G7L | 1.95
38 | G7Y | 2.18
39 | G7N | 2.64
40 | G7R | 1.62
41 | G7W | 2.52
42 | K8Q | 3.07
43 | K8A | 2.49
44 | K8E | 2.46
45 | K8D | 2.41
46 | K8G | 1.85
47 | K8C | 2.17
48 | K8M | 1.91

Row | Variant | protein stability index
49 | K8I | 2.67
50 | K8S | 2.44
51 | K8H | 1.44
52 | K8F | 2.42
53 | K8L | 2.01
54 | K8V | 2.07
55 | K8R | 2.24
56 | W10C | 2.17
57 | W10S | 2.73
58 | W10Y | 1.93
59 | W10L | 2.46
60 | W10N | 2.5
61 | W10V | 2.78
62 | W10K | 2.61
63 | W10M | 2.37
64 | W10F | 2.47
65 | W10I | 2.3
66 | W10E | 2.99
67 | W10H | 2.44
68 | W10A | 2.42
69 | W10P | 2.69
70 | W10Q | 2.7
71 | W10T | 2.91
72 | W18T | 1.94

Row | Variant | protein stability index
73 | W18R | 1.5
74 | W18A | 2.76
75 | W18V | 2.66
76 | W18F | 2.54
77 | W18N | 2.58
78 | W18E | 2.52
79 | W18D | 3.01
80 | W18Y | 1.56
81 | W18Q | 1.84
82 | W18M | 2.46
83 | W18G | 2
84 | W18H | 3.04
85 | W18S | 2.05
86 | W18I | 1.96
87 | W18L | 2.19
88 | W18K | 2.11
89 | V2T | 2.22
90 | V2C | 2.09
91 | V2F | 2.21
92 | V2D | 3.58
93 | V2I | 2.66
94 | V2P | 2.12
95 | V2G | 1.98
96 | V2R | 3.03

Row | Variant | protein stability index
97 | V2H | 1.55
98 | V2Q | 2.16
99 | V2K | 3
100 | V2M | 2.96
101 | V2A | 1.78
102 | V2E | 3.7
103 | K21D | 2.34
104 | K21P | 2.67
105 | K21V | 2.03
106 | K21F | 3.06
107 | K21N | 2.15
108 | K21Y | 2.14
109 | K21I | 1.68
110 | K21M | 2.13
111 | K21H | 1.85
112 | K21E | 3.16
113 | K21G | 2.14
114 | C14R | 2.33
115 | C14P | 1.98
116 | C14T | 2.52
117 | C14H | 4.51
118 | C14K | 1.45
119 | C14M | 2.98
120 | C14D | 2.4

Row | Variant | protein stability index
121 | C14E | 2.5
122 | C14F | 2.07
123 | C14S | 1.75
124 | C14W | 4.18
125 | K5P | 1.7
126 | K5E | 1.7
127 | K5I | 2.46
128 | K5W | 2.87
129 | K5V | 2.63
130 | K5H | 1.85
131 | K5A | 3.18
132 | K5G | 2.46
133 | K5C | 1.65
134 | K5T | 2.35
135 | K5S | 1.46
136 | K5N | 1.86
137 | K5L | 2.65
138 | K5R | 3.94
139 | K16R | 3.43
140 | K16F | 2.02
141 | K16A | 2.08
142 | K16Q | 2.24
143 | K16Y | 2.82
144 | K16N | 1.93

Row | Variant | protein stability index
145 | K16H | 2.83
146 | K16S | 3.34
147 | K16L | 2.42
148 | K16G | 3.14
149 | K16E | 1.19
150 | T19Q | 3.17
151 | T19L | 1.39
152 | T19G | 2.56
153 | T19M | 1.99
154 | T19V | 2.26
155 | T19D | 2.34
156 | T19C | 2.75
157 | T19H | 1.78
158 | T19A | 1.45
159 | T19R | 1.77
160 | T19K | 1.87
161 | T19W | 2.64
162 | T19F | 2.16
163 | T19P | 2.11
164 | T19S | 1.72
165 | T19Y | 2.29
166 | K11R | 2.52
167 | K11H | 2.45
168 | K11E | 2.28

Row | Variant | protein stability index
169 | K11S | 3.37
170 | K11G | 2.77
171 | K11Q | 1.83
172 | K11F | 3.38
173 | K11L | 2.53
174 | K11W | 3.53
175 | T9N | 1.99
176 | T9R | 2.55
177 | T9H | 1.86
178 | T9G | 2.11
179 | T9M | 2.92
180 | T9I | 2.48
181 | T9D | 1.6
182 | T9K | 2.43
183 | T9F | 4.42
184 | T9V | 1.94
185 | T9Y | 2.33
186 | A20D | 2.59
187 | A20L | 2.16
188 | A20I | 1.99
189 | A20F | 1.9
190 | A20K | 2.25
191 | A20T | 2.03
192 | A20Q | 2.54

Row | Variant | protein stability index
193 | A20Y | 2.27
194 | H17K | 2.98
195 | H17A | 3
196 | H17D | 1.84
197 | H17R | 3.35
198 | H17I | 2.14
199 | H17Q | 1.53
200 | H17Y | 3.47
201 | H17E | 2.3
202 | H17N | 2.89
203 | H17T | 1.97
204 | H17P | 3.06
205 | H17G | 3.27
206 | H17L | 2.81
207 | H17F | 3.2
208 | V4Q | 1.51
209 | V4Y | 1.14
210 | V4C | 2.22
211 | V4F | 2.36
212 | V4R | 2.1
213 | V4M | 1.82
214 | V4E | 1.42
215 | V4L | 3.89
216 | V4H | 1.74

Row | Variant | protein stability index
217 | V4W | 1.39
218 | V4G | 2.86
219 | V4I | 2.55
220 | V4S | 2.73
221 | E3M | 1.06
222 | E3I | 2.53
223 | E3C | 1.44
224 | E3Q | 1.95
225 | E3G | 3.63
226 | E3H | 2.92
227 | E3N | 2.29
228 | E3L | 2.58
229 | E3F | 2.52
230 | E3D | 2.63
231 | E3V | 1.56
232 | E3S | 3.96
233 | E3W | 2.6
234 | N22E | 2.25
235 | N22R | 1.8
236 | N22M | 2.35
237 | N22G | 2.13
238 | N22T | 2.54
239 | N22I | 2.8
240 | N22H | 2.99

Row | Variant | protein stability index
241 | N22W | 3.39
242 | N22L | 1.78
243 | N22Y | 2.23
244 | N22D | 2.42
245 | N22S | 1.92
246 | N22V | 2.79
247 | N22P | 1.89
248 | Y1W | 2.29
249 | Y1H | 3.14
250 | Y1N | 3.93
251 | Y1S | 3.71
252 | Y1T | 3.21
253 | Y1P | 3.68
254 | Y1M | 3.49
255 | Y1C | 3.36
256 | Y1D | 3.52
257 | Y1A | 3.4
258 | Y1E | 3.46
259 | Y1I | 2.68
260 | D15I | 1.83
261 | D15L | 2.62
262 | D15A | 2.96
263 | D15K | 2.94
264 | D15W | 2.6

Row | Variant | protein stability index
265 | D15E | 3.34
266 | D15M | 2.05
267 | D15H | 2.49
268 | D15G | 2.64
269 | D15V | 2.49
270 | D15R | 1.8
271 | D15Q | 2.56
272 | D15T | 2.26
273 | D15P | 1.76
274 | S23A | 2.97
275 | S23C | 2.73
276 | S23V | 2.15
277 | S23K | 2.88
278 | S23E | 2.17
279 | S23P | 1.94
280 | S23I | 2.82
281 | S23D | 2.41
282 | S23N | 1.71
283 | S23T | 2.33
284 | S23R | 2.09
285 | S23F | 1.19
286 | S23G | 1.83
287 | S23Y | 2.64
288 | S23M | 1.97

Row | Variant | protein stability index
289 | E6H | 2.64
290 | E6L | 2.79
291 | E6C | 3.35
292 | E6D | 2.9
293 | E6W | 2.16
294 | E6P | 2.18
295 | E6S | 1.99
296 | E6T | 2.77
297 | E6F | 2.49
298 | E6I | 1.47
299 | Q12F | 2.46
300 | Q12V | 1.48
301 | Q12N | 2.61
302 | Q12H | 3.06
303 | Q12M | 2.64
304 | Q12K | 2.63
305 | Q12P | 2.31
306 | Q12T | 2.43
307 | Q12W | 2.42
308 | Q12A | 1.56
309 | Q12D | 2.02
310 | Q12R | 3.12
311 | Q12C | 1.58
312 | Q12E | 1.58

Variants of: B2
Assay: as above
Conditions: c terminus: a fixed tail appended

Row | Variant | protein stability index
313 | F24L | 3.83
314 | F24R | 4.34
315 | F24W | 2.88
316 | F24V | 3.77
317 | F24G | 4.45
318 | F24E | 5.32
319 | F24P | 3.9
320 | F24C | 3.99
321 | F24M | 4.49
322 | F24H | 4.01
323 | F24I | 2.51
324 | F24A | 4.61
325 | F24K | 4.87
326 | F24N | 4.35
327 | F24S | 3.9
328 | F24D | 4.57
329 | F24T | 3.94
330 | F24Y | 3.4
331 | Q23Y | 2.38
332 | Q23S | 3.06
333 | Q23T | 3.1
334 | Q23V | 2.08
